{"source": "patent US10254283", "proteins": {"B1": {"name": "recombinant MELK (kinase domain) (protein)", "chain": "MKDYDELLKYYELHETIGTGGFAKVKLACHILTGEMVAIKIMDKNTLGSDLPRIKTEIEALKNLRHQHICQLYHVLETANKIFMVLEYCPGGELFDYIISQDRLSEEETRVVFRQIVSAVAYVHSQGYAHRDLKPENLLFDEYHKLKLIDFGLCAKPKGNKDYHLQTCCGSLAYAAPELIQGKSYLGSEADVWSMGILLYVLMCGFLPFDDDNVMALYKKIMRGKYDVPKWLSPSSILLLQQMLQVDPKKRISMKNLLNHPWIMQDYNYPVEWQSKNPFIHLDDDCVTELSVHHRNNRQTMEDLISLWQYDHLTATYLLLLAKKARGKPVRLRLSSFSCG"}}, "key": {"[1]": {"target": "recombinant Histone H3.1 (New England BioLabs, M2503S)"}}}
{"protein": "B1", "values": [{"measurement": "in vitro kinase assay, phosphorylation of eIF4B at S406 (immunoblot)", "setting": "Flag-eIF4B (S406A)", "value": "This phosphorylation was abolished when wild type (wt) eIF4B was replaced with a mutant eIF4B (S406A)"}, {"measurement": "in vitro kinase assay, phosphorylation of eIF4B at Ser406 (immunoblot)", "setting": "Flag-eIF4B (wild type)", "value": "Ser406, but not Ser422, of human eIF4B was readily phosphorylated by full-length MELK or the kinase domain of MELK"}, {"measurement": "in vitro kinase assay, phosphorylation of eIF4B at Ser422 (immunoblot)", "setting": "Flag-eIF4B (wild type)", "value": "MELK does not phosphorylates eIF4B at S422 in vitro"}, {"measurement": "in vitro kinase assay, phosphorylation of Histone H3 at Thr3, Ser10 and Thr11 (immunoblot)", "setting": "[1]", "value": "Thr3, Ser10, and Thr11 of human Histone H3 were readily phosphorylated by the kinase domain of MELK"}]}
